Laboratory results as given in patent publication US20250270518A1, “NOVEL LUCIFERASES WITH IMPROVED PROPERTIES” (SVAR Life Science AB, priority 2021, published 2025).
Residue numbers refer to the chain shown, from its start. Entries after “also recorded” stand apart in the source; their conditions may differ.

B1: SVAR Luc-1: Engineered luciferase derived from Metridia longa luciferase, amino acid sequence SEQ ID NO: AA1, encoded by SEQ ID NO: 1 (protein)
chain: MEAEAERGKSPGKKLPLAVIMEIEANAFKAGCTRGCLICLSKIKCTAKMKVYIPGRCHDYGGDKKTGQAGIVGAIVDIPEISGFKEMEPMEQFIAQVDRCASCTTGCLKGLANVKCSELLKKWLPDRCASFADKIQKEVHNIKGMAGDR
modifications: NO.1 (1)..(450) SEQ ID NO.1
B2: SVAR Luc-2: Engineered luciferase derived from Metridia longa luciferase, isoleucine 106 to valine, SEQ ID NO: AA2, encoded by SEQ ID NO: 2 (protein)
chain: B1 chain with I94V
modifications: NO.2 (1)..(450) SEQ ID NO.2

Columns and labels:
HEK293 cells [1] = assay: Transient transfection of HEK293 cells, luciferase genes under constitutive CMV promoter, luciferase activity in supernatant (FIG. 3A); type: cell-based, human; settings: 18 hours at 37° C., QuantiLuc Gold, compared with native Metridia longa luciferase and other luciferases
Protocol: FIG. 3A illustrates the response of HEK293 cells following transient transfection of cells with the novel Svar vector encoding the luciferases genes indicated, each under the control of a constitutive CMV promoter, and co-transfection of cells with firefly luciferase under the control of a constitutive thymidine kinase (TK) promoter. Luciferase activity was quantified in the cell supernatant after 18 hours incubation of cells at 37° C. using a commercially available coelenterazine based “glo” substrate (QuantiLuc Gold, Invivogen). The cells were then lysed and firefly luciferase activity was quantified with BrightGlo (Promega).
A series of deletion mutants of the 5′ coding region of the native Metridia longa luciferase gene were designed in silico, synthetized in vitro and tested in transient transfection experiments. The nucleotide sequence of the native Metridia longa gene luciferase gene is illustrated in FIG. 1 and the amino acid sequence in FIG. 2.
A series of random mutation were introduced into the coding sequence of the native Metridia longa luciferase gene using oligonucleotides carrying a single or multiple mutations (FIG. 4). The oligonucleotides were synthetized in vitro and tested in transient transfection experiments in human the HEK293 cell line originally derived from human embryonic kidney cells grown in tissue culture (ATCC Catalogue CRL-1573).

[2] = system: NFkB recognition sequence chimeric promoter in HEK293 cells; assay: Transient transfection of HEK293 cells, luciferase genes under NFkB responsive chimeric promoter, treated with TNF (FIG. 3B); type: cell-based, human; settings: compared with native Metridia longa luciferase gene; for luminescence / luciferase activity, relative light units (RLU): 100 ng/ml TNF for 6 hours at 37° C.
Protocol: FIG. 3B illustrates the response of HEK293 cells following transient transfection of cells with the novel Svar vector encoding either the wild type Metridia longa luciferase gene, or the Svar luciferase 1 or the Svar luciferase 2 genes each under the control of a chimeric promoter consisting of a SV40 minimal promoter and a 6-fold tandem repeat of the canonical NFkB recognition sequence and treated with 100 ng/ml of TNF[…] for 6 hours at 37° C. prior to quantification of the luciferase signal using a commercially available coelenterazine based “glo” substrate (QuantiLuc Gold, Invivogen).

HEK293 cells [3] = assay: Rate of loss of luciferase activity in supernatant of transiently transfected HEK293 cells (FIG. 6); type: cell-based, human; settings: CMV promoter, room temperature, QuantiLuc Gold, compared with wild type Metridia longa luciferase
From the text: FIG. 6A illustrates the rate of loss of luciferase activity in the supernatant of HEK293 cells following transient transfection of cells with the luciferases genes indicated, each under the control of a constitutive CMV promoter, and quantification of luciferase activity at increasing times at room temperature using a commercially available coelenterazine based “glo” substrate (QuantiLuc, Gold Invivogen).

[4] = system: NFkB recognition sequence chimeric promoter in HEK293 cells; assay: Clonal HEK293 cell line stably transfected with NFkB responsive reporter gene, increasing TNF (FIG. 7); type: cell-based, human; settings: stable HEK293 clone, increasing TNF for 6 hours at 37° C., QuantiLuc Gold
From the text: FIG. 7 illustrates the response of a clonal cell line of HEK293 cells stably transfected with a reporter gene comprising the sequence set forth in SEQ ID NO: 1 under the control of a chimeric promoter consisting of a SV40 minimal promoter and a 6-fold tandem repeat of the canonical NFkB recognition sequence treated with increasing concentrations of TNF[…].
HEK293 cells were transfected with the Svar luciferase Luc-1 gene under the control of a chimeric promoter consisting a SV40 minimal promoter and a 6-fold tandem repeat of the canonical NFkB recognition sequence and stable clones were isolated and characterized.

[5] = system: NFkB recognition sequence chimeric promoter in K562 cells; assay: K562 clonal cell lines stably transfected with NFkB responsive reporter gene, increasing TNF (FIG. 8); type: cell-based, human; settings: stable K562 clones, increasing TNF for 6 hours at 37° C., compared with firefly luciferase under same promoter
From the text: FIG. 8 illustrates a comparison of the response of K562 cells stably transfected with either the luciferase gene comprising the sequence set forth in SEQ ID NO: 1 under the control of a chimeric promoter consisting of a SV40 minimal promoter and a 6-fold tandem repeat of the canonical NFkB recognition sequence and K562 cells stably transfected with the firefly luciferase gene comprising the open reading frame encoding the firefly luciferase protein under the control of the same NFkB responsive promoter and treatment of cells with increasing concentrations of TNF[…] for 6 hours at 37° C.
K562 cells originally derived from a chronic myelogenous leukemia (ATCC, catalogue number CCL-243) were transfected with either the Svar luciferase Luc-1 gene or firefly luciferase gene each under the control of a chimeric promoter consisting a SV40 minimal promoter and a 6-fold tandem repeat of the canonical NFkB recognition sequence. Stable clones were isolated and characterized. The clonal cell lines were treated with increasing concentrations of TNF[…] for 6 hours at 37° C. (FIG. 8).

[6] = system: transfected mammalian cells; assay: Comparison of luciferase properties with other luciferases (Table 2); type: cell-based; settings: relative to other native or engineered luciferases reported in the literature
From the text: FIG. 12 illustrates Table 2 showing a comparison of the properties of the luciferase encoded by the sequence set forth in SEQ ID NO: 1 and SEQ ID NO:2 and comprising the amino acid sequence encoded by the sequence set forth in AA1 and AA2 relative to those of other native or engineered luciferases reported in the literature.

| Molecule | luciferase activity / light output (brightness), relative light units (RLU) (HEK293 cells [1]) | luminescence / luciferase activity, relative light units (RLU) [2] | luminescence / luciferase activity, relative light units (RLU) ([2]; listed as Svar luciferase 1) | dynamic range relative to control samples in the absence of the pharmacology active substance [2] | signal stability and/or signal duration (HEK293 cells [3]) | relative light units (RLU) and fold induction relative to control not treated with TNF [4] | relative light units (RLU) values [5] | toxicity for transfected mammalian cells [6] | luciferase activity / light output (brightness), relative light units (RLU) (HEK293 cells [1]; listed as Svar luciferase 2) | luminescence / luciferase activity, relative light units (RLU) ([2]; listed as Svar luciferase 2) |
| --- | --- | --- | --- | --- | --- | --- | --- | --- | --- | --- |
| B1 | increased light output (brightness) | increased luminescence including increased light output (brightness) | enhanced luciferase activity relative to the wild type gene | higher dynamic range | increased signal stability and/or signal duration | high levels of both relative light units (RLU) and fold induction | markedly higher relative light units (RLU) values | absence of toxicity |  |  |
| B2 | improved activity relative to the native Metridia longa luciferase; also recorded: equivalent or slightly reduced activity relative to SVAR Luc-1 luciferase | increased luminescence including increased light output (brightness) |  | higher dynamic range | increased signal stability and/or signal duration |  |  |  | increased light output (brightness) | enhanced luciferase activity relative to the wild type gene |
